Results reported in patent US20110039773A1.

Experiments:
Assay in all cases: cell-based or functional assay
[1] = biological target: Rev K60E (revertant of 80-1) (human) (UniProt P18075)
BMP-7 (human) = BMP-7 (human) (UniProt P18075)
BMP-7 E60K (human) = BMP-7 E60K (human) (UniProt P18075)
[2] = biological target: BMP-7 R48Q/E60K/Y65N (human) (UniProt P18075)
BMP-6 (human) = BMP-6 (human) (UniProt P22004)
BMP-7 Y78H (human) = BMP-7 Y78H (human) (UniProt P18075)

UniProt P22004, sequence (P22004 375-513): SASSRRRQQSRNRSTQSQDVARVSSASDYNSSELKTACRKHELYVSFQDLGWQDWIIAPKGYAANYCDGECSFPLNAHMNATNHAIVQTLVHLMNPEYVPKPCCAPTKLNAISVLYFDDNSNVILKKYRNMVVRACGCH

B1: Noggin (protein, UniProt Q13253 28-232, looked up)
chain: QHYLHIRPAPSDNLPLVDLIEHPDPIFDPKEKDLNETLLRSLLGGHYDPGFMATSPPEDRPGGGGGAAGGAEDLAELDQLLRQRPSGAMPSEIKGLEFSEGLAQGKKQRLSKKLRRKLQMWLWSQTFCPVLYAWNDLGSRFWPRYVKVGSCFSKRSCSVPEGMVCKPSKSVHLTVLRWRCQRRGGQRCGWIPIQYPIISECKCSC
[1]
  relative activity in the presence of noggin at 100 ng/ml (N1), reporter gene assay: 86%
  relative activity in the presence of noggin at 500 ng/ml (N2), reporter gene assay: 51%
  relative activity in the presence of noggin at 1000 ng/ml (N3), reporter gene assay: 32%
BMP-7 (human)
  relative activity at 1000 ng/ml of noggin, reporter gene assay, conditioned media: 15%
BMP-7 E60K (human)
  relative activity at 1000 ng/ml of noggin, reporter gene assay, conditioned media: 53%
[2]
  relative activity at 1000 ng/ml of noggin, reporter gene assay, conditioned media: 63%
BMP-6 (human)
  BMP-induced ID-1 gene expression by QPCR in hMSCs, BMP 50 ng/ml, Noggin 1.5 ug/ml, level against background (times background): 2
  maximum percent inhibition by Noggin of BMP-induced luciferase activity, A549-BRE cells, BMP 150 ng/ml: 25%
  relative activity at 1000 ng/ml of noggin, reporter gene assay, conditioned media: 73%
BMP-7 Y78H (human)
  relative activity at 1000 ng/ml of noggin, reporter gene assay, conditioned media: 31%
